Laboratory results reported in patent US20160200782A1 (MOERAE MATRIX, published 2016).

T1: TAO3(h) (human, UniProt Q9H2K8 1-315, limits assumed)
T1 sequence (looked up): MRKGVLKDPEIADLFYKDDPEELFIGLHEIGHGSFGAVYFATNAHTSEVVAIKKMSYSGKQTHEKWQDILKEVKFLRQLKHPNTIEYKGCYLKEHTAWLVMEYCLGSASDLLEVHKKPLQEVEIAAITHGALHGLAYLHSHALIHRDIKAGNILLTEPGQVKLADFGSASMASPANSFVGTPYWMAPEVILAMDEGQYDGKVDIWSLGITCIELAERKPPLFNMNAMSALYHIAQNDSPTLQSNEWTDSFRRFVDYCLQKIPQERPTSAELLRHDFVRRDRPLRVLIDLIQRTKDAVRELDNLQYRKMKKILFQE

T2: BrSK2(h) (human, UniProt Q8IWQ3 1-736, limits assumed)
T2 sequence (looked up): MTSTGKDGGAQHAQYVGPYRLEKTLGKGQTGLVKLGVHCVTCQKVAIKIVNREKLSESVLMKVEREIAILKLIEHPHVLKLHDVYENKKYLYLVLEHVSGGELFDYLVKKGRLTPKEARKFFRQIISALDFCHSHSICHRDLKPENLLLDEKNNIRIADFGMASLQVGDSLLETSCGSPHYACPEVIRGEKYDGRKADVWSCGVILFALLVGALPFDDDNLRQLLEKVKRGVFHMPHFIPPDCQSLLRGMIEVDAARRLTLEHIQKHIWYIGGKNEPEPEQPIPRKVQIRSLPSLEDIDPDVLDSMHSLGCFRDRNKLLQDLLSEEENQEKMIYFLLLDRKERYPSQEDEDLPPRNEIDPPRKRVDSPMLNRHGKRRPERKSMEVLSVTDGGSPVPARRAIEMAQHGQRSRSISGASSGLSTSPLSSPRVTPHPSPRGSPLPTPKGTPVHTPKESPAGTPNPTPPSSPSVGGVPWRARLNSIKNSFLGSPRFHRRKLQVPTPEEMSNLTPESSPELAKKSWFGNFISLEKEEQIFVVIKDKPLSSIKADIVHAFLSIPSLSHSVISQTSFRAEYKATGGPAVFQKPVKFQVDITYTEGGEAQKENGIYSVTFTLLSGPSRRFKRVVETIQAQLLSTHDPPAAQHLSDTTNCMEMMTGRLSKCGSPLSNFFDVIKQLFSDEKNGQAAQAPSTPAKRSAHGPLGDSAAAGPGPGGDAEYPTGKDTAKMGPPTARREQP

T3: TSSK1(h) (human, UniProt Q9BXA7 1-367)
T3 sequence (looked up): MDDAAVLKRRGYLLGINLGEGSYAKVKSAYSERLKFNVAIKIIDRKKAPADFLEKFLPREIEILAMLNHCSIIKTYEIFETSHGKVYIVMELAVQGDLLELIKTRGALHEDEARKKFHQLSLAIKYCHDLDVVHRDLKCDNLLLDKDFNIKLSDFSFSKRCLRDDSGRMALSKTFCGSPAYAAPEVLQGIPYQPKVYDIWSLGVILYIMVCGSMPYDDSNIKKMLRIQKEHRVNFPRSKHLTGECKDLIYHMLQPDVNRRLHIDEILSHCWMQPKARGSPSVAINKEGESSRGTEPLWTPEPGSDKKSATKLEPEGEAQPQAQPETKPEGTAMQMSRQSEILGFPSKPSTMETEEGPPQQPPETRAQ

T4: ULK3(h) (human, UniProt Q6PHR2 1-472, limits assumed)
T4 sequence (looked up): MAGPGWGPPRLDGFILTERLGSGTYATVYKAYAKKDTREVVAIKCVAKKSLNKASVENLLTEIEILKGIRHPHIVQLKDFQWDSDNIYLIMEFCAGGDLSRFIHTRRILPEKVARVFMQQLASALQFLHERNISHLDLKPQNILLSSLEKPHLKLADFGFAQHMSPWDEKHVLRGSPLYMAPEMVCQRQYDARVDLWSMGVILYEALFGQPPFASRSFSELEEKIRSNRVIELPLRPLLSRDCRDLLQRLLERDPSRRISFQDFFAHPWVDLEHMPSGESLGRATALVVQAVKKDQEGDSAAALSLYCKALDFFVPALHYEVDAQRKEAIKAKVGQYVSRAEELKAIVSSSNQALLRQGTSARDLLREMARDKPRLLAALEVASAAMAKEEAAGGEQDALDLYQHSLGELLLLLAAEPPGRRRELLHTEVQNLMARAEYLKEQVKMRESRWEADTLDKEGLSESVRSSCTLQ


What was measured:
Experiment in all cases: cell-based or functional assay
[1] = target: CDK1/cyclinB(h) (human, UniProt P06493 1-297; P06493 1-297)
[2] = target: T1, TAO3(h)
[3] = target: T2, BrSK2(h)
[4] = target: MEK1(h) (human, UniProt Q02750 1-393, limits assumed)
[5] = target: T3, TSSK1(h)
[6] = target: BTK(h) (human, UniProt Q06187 1-659)
[7] = target: Snk(h) (human, UniProt Q9NYY3 1-685, limits assumed)
[8] = target: GSK3β(h) (human, UniProt P49841 1-420)
[9] = target: PKBβ(h) (human, UniProt P31751 1-481, limits assumed)
[10] = target: CSK(h) (human, UniProt P41240 1-450)
[11] = target: T4, ULK3(h)
[12] = target: Lyn(h) (human, UniProt P07948 1-512, limits assumed)
Note: test concentration or dose not given here.

Snk(h), sequence (Q9NYY3 whole entry): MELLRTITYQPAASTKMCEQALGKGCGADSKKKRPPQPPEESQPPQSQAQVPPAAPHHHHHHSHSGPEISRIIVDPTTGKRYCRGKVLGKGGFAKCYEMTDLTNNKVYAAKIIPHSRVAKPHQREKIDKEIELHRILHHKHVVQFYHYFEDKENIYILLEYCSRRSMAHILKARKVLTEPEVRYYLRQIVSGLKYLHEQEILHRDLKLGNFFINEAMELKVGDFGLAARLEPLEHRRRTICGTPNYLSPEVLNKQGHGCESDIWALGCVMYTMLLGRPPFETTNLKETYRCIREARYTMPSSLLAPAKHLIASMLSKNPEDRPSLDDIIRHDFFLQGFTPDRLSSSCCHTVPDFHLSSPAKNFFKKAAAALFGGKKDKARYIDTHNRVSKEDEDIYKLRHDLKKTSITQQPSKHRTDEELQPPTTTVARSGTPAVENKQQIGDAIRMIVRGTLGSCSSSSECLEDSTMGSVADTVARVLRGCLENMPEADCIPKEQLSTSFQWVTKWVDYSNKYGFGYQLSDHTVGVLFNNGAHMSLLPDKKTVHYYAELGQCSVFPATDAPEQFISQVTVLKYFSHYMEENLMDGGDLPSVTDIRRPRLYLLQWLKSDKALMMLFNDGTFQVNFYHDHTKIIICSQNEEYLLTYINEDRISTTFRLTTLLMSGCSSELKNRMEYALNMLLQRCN
PKBβ(h), sequence (P31751 whole entry): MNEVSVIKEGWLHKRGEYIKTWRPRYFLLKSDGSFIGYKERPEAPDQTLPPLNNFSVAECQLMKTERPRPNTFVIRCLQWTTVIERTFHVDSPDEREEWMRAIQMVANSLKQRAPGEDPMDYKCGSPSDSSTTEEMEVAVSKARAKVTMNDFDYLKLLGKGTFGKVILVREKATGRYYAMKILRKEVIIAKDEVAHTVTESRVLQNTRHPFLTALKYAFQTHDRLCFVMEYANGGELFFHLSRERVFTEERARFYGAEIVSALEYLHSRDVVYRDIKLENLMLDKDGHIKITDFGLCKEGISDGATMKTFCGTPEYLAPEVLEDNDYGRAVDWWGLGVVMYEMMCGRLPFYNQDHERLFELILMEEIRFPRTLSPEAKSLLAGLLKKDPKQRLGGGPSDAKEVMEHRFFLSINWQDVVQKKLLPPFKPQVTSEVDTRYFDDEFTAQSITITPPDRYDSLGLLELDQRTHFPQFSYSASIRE
CDK1/cyclinB(h), sequence (P06493 whole entry, chain 1 of 2): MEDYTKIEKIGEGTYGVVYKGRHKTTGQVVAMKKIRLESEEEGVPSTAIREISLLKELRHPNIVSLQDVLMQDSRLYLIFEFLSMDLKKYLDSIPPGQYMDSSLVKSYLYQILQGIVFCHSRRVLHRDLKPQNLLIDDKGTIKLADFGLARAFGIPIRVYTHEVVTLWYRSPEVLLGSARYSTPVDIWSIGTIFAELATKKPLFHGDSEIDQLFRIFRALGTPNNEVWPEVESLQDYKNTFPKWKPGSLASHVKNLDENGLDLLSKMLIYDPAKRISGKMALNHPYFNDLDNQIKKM
CDK1/cyclinB(h), sequence (P06493 whole entry, chain 2 of 2): as the sequence (P06493 whole entry, chain 1 of 2) above
GSK3β(h), sequence (P49841 whole entry): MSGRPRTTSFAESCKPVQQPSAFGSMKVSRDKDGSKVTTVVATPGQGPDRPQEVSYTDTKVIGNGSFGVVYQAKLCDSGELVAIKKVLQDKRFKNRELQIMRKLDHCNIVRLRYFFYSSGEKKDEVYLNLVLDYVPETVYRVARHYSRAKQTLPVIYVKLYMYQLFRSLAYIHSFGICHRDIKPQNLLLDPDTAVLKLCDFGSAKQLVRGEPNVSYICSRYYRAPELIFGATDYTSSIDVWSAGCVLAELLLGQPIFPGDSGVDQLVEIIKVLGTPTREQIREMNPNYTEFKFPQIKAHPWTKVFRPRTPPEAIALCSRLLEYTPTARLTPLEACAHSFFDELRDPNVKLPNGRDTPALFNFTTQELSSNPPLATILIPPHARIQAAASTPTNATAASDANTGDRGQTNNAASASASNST
Lyn(h), sequence (P07948 whole entry): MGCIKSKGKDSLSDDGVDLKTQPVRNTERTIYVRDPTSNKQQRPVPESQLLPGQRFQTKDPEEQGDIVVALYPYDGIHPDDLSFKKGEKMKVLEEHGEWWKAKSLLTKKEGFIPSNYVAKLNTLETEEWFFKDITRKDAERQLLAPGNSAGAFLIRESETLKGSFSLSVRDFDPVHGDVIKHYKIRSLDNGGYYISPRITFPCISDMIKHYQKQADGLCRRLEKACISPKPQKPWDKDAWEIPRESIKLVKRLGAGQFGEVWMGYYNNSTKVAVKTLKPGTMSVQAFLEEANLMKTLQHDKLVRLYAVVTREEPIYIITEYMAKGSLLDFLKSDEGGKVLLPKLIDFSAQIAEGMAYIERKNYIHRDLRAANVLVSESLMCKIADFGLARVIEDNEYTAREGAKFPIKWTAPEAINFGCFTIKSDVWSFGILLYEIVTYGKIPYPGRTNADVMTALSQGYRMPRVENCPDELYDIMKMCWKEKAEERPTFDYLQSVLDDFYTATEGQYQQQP
BTK(h), sequence (Q06187 whole entry): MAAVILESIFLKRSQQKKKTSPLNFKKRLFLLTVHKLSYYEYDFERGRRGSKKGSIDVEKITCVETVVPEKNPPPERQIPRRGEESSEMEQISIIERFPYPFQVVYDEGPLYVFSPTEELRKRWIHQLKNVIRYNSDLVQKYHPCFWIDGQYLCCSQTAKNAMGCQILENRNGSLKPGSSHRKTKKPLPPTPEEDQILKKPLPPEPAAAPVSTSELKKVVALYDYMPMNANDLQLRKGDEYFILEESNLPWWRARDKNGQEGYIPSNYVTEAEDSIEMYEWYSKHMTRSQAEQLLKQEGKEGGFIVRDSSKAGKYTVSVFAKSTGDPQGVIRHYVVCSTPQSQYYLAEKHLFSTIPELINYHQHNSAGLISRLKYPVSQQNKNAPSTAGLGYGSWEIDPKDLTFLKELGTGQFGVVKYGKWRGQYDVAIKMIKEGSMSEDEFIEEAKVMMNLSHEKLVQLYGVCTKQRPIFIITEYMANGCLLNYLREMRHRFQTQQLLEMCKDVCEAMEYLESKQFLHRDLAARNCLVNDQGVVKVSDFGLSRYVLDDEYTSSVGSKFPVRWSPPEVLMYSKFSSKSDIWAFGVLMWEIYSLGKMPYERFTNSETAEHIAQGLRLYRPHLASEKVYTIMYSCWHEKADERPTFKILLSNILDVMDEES

% activity [1]	% activity [2]	% activity [3]	% activity [4]	% activity [5]	% activity [6]	% activity [7]	% activity [8]	% activity [9]	% activity [10]	% activity [11]	% activity [12]	Binder
73%	77%	83%	77%	79%	102%	114%	205%	84%	49%	167%	69%	FAKLAARLYRKALARQLGVAA [MMI-0300]
74%	67%	86%	77%	79%	94%	131%	202%	98%	16%	147%	3%	KAFAKLAARLYRKALARQLGVAA [MMI-0400]
